According to patent publication US5480970A, “Metal chelators” (Resolution Pharmaceuticals, priority 1993, dated 1996):
Side-chain parts run from the residue outwards. [ ]: non-standard residue; d: D form. The star is where a group is joined. Picolinoyl = O=C(c1ccccn1)*; Nle = CCCC[C@H](N)C(=O)O; Chel = not defined here; Acm = CC(=O)NC*; For = O=C*

Legend:
[1] = In vivo biodistribution of Tc-99m chelates in rat inflammation studies; design: species or system male Wistar rats; conditions: for In vivo Distribution blood: Tc-99m chelate i.v. tail vein, average of two rats, time (min): RP-022 90, RP-043 88, RP-050 109, RP-063 30, RP-065 30, IgG 120, RP-049 not given; for In vivo Distribution GI tract / In vivo Distribution liver / In vivo Distribution kidney / In vivo Distribution urine: Tc-99m chelate i.v.; for In vivo Distribution GI tract / In vivo Distribution liver: time (min): RP-022 90, RP-043 88, RP-050 109, RP-063 30; for In vivo Distribution kidney: time (min): RP-022 90, RP-043 88, RP-050 109, RP-063 30, RP-049 not given; for In vivo Distribution urine: time (min): RP-022 90, RP-043 88, RP-050 109, RP-063 30, RP-065 30
Protocol: (§1) Rat inflammation studies were performed as follows. 2 male Wistar rats (Charles River, 150-200 g) were injected intramuscularly with zymosan, a yeast cell wall preparation (5 mg) or virulent E. coli (ATCC 25922, 0.1 ml of 0.5×10^9 organisms/ml) suspension into their left hindlegs 24 hours before imaging. Focal inflammation in the leg was visually detectable after 1 day. 1 mg (ca. 0.7 μMol) of the chelator was dissolved in 50 μL of dimethylsulfoxide and added to an ethanol-water mixture (1:1, 200 μL). An aliquot of Tc-99m tartarate (ca. 400 MBq) was added and transchelation allowed to proceed for 20 min. at 100° C. The Tc-99m chelate was purified by elution through a Sep Pak cartridge. The purified tracer solution was further diluted with saline to prepare an injectable (200 μL) containing about 100 μCi (3.7 MBq) of activity.
(§2) The rats were anaesthetized with somnitol (40 to 50 mg/kg), and the Tc-99m chelate solution (200 μL) was injected intravenously via the tail vein. Serial whole-body scintigrams were acquired for the first 5 minutes. Subsequently, further images were obtained at 30, 60, and 120 minutes. The rats were then killed with anaesthesia and samples of organs, urine, blood, inflamed muscle (left leg) and non-inflamed muscle (right leg) were weighted and counted in either a well-type gamma counter or in a gamma dose calibrator. The dose calculations were made based on assumption that the rat weighed 200 g and that the blood volume constituted 8% of body weight. Results are averages for two rats and are corrected for the residual dose in the tail.

neutrophil receptors = assay: Neutrophil binding assay, competition with tritiated fMLP; conditions: competition with 15 nM tritiated fMLP, 10^6 rat neutrophils, 1 hour room temperature
Protocol: Rat peripheral neutrophils were prepared for binding assay as follows: blood was obtained by cardiac puncture and anticoagulated with acid- citrate dextrose (ACD) (10%). Red blood cells were removed by sedimentation on hydroxyethyl cellulose (1.1%) for 30 min at room temperature and leukocyte-rich supernatant layered onto 65% percol. […] The remaining neutrophils were resuspended in Hanks Buffered Salt Solution (HBSS) to the desired concentration. Final neutrophil preparation consisted of cells pooled from up to 10 animals, >90% neutrophils and >95% viable by Trypan Blue exclusion.
Binding affinity of the test peptides was assessed by competing off a constant concentration of tritiated fMLP of known affinity for neutrophil receptors. 10^6 neutrophils were added to polypropylene plates containing 15 nM tritiated fMLP and varying concentrations of unlabelled test peptides in a final volume of 150 μL HBSS. […] Filters were then placed in 6 ml scintillation vials, 5 ml of scintillation fluid added (Ecolume) and vials counted using a liquid scintillation counter. […] Specific binding was the total binding less non-specific binding which was the amount of residual radioactivity bound in the presence of 10 μM unlabelled fMLP.

[2] = tested on: inflamed muscle (left leg), E. coli; assay: In vivo uptake of Tc-99m chelates in inflamed vs non-inflamed muscle; design: species or system male Wistar rats; conditions: Inflam agent E. coli; for Inflam muscle / Uninfl muscle: time (min): RP-063 30, RP-056 45, IgG 120, others not given; for Infl:Uninfl: ratio inflamed to uninflamed muscle, time (min): RP-063 30, RP-056 45, IgG 120
Protocol: as §1, §2

Chel-Gly-Cys(Acm)-Gly-OH (reading uncertain; also: printed as Chel-Gly-Cys(Acm)-Gly-OH) [RP-043, ID NO: 6]
In vivo Distribution blood [1]: 1.016 % per organ | In vivo Distribution GI tract [1]: 52.619 % per organ | In vivo Distribution liver [1]: 0.953 % per organ | In vivo Distribution kidney [1]: 4.359 % per organ | In vivo Distribution urine [1]: 33.950 % per organ

(Pic-Gly-Cys(Acm)-Gly)-ε-NH-Lys(-Asp-Gly-OH)-Lys-Tyr-Nleu-Phe-Leu- Nleu-for (For-[Nle]LF[Nle]YKK([Gly-Cys(Acm)-Gly-Picolinoyl])DG-OH) [RP-056, ID No. 13]
binding affinity for neutrophil receptors (neutrophil receptors): greater binding affinity for neutrophil receptors than native fMLP | Inflam muscle [2]: 0.143 % per gm | Uninfl muscle [2]: 0.041 % per gm | Infl:Uninfl [2]: 3.52

(Pic-Gly-Cys-Gly)-εNH-Lys(-Gly-OH)-Tyr-Nleu-Phe-Leu-Nleu-for (For-[Nle]LF[Nle]YK([Gly-Cys-Gly-Picolinoyl])G-OH; SMILES CCCC[C@H](NC=O)C(=O)N[C@@H](CC(C)C)C(=O)N[C@@H](Cc1ccccc1)C(=O)N[C@@H](CCCC)C(=O)N[C@@H](Cc1ccc(O)cc1)C(=O)N[C@@H](CCCCNC(=O)CNC(=O)[C@H](CS)NC(=O)CNC(=O)c1ccccn1)C(=O)NCC(=O)O) [RP-022, ID NO: 11]
In vivo Distribution blood [1]: 3.036 % per organ | In vivo Distribution GI tract [1]: 41.285 % per organ | In vivo Distribution liver [1]: 35.26 % per organ | In vivo Distribution kidney [1]: 18.82 % per organ | In vivo Distribution urine [1]: 8.400 % per organ

Pic-Gly-Cys(Acm)-Gly-OH (Picolinoyl-Gly-Cys(Acm)-Gly-OH; SMILES CC(=O)NCSC[C@H](NC(=O)CNC(=O)c1ccccn1)C(=O)NCC(=O)O) [RP-049, ID NO: 8]
Inflam muscle [2]: 0.077 % per gm | Uninfl muscle [2]: 0.019 % per gm | Infl:Uninfl [2]: 4.24 | In vivo Distribution blood [1]: 0.187 % per organ | In vivo Distribution kidney [1]: 21.700 % per organ

(Pic-Gly-Cys(Acm)-Gly)-εNH-Lys(-Gly-OH)-Tyr-Nleu-Phe-Leu-Nleu-for (For-[Nle]LF[Nle]YK([Gly-Cys(Acm)-Gly-Picolinoyl])G-OH) [RP-050, ID NO: 12]
binding affinity for neutrophil receptors (neutrophil receptors): greater binding affinity for neutrophil receptors than native fMLP | Infl:Uninfl [2]: 3.17 | In vivo Distribution blood [1]: 3.436 % per organ | In vivo Distribution GI tract [1]: 25.777 % per organ | In vivo Distribution liver [1]: 20.866 % per organ | In vivo Distribution kidney [1]: 11.470 % per organ | In vivo Distribution urine [1]: 14.050 % per organ

(Pic-Ser-Cys(Acm)-Gly)-Lys-Pro-Pro-Arg-OH (Picolinoyl-SC(Acm)GKPPR-OH; SMILES CC(=O)NCSC[C@H](NC(=O)[C@H](CO)NC(=O)c1ccccn1)C(=O)NCC(=O)N[C@@H](CCCCN)C(=O)N1CCC[C@H]1C(=O)N1CCC[C@H]1C(=O)N[C@@H](CCCNC(=N)N)C(=O)O) [RP-065, ID NO: 10]
Inflam muscle [2]: 0.125 % per gm | Uninfl muscle [2]: 0.059 % per gm | Infl:Uninfl [2]: 2.1 | In vivo Distribution blood [1]: 3.520 % per organ | In vivo Distribution urine [1]: 53.000 % per organ

(Pic-Ser-Cys(Acm)-Gly)-Thr-Lys-Pro-Pro-Arg-OH (Picolinoyl-SC(Acm)GTKPPR-OH; SMILES CC(=O)NCSC[C@H](NC(=O)[C@H](CO)NC(=O)c1ccccn1)C(=O)NCC(=O)N[C@H](C(=O)N[C@@H](CCCCN)C(=O)N1CCC[C@H]1C(=O)N1CCC[C@H]1C(=O)N[C@@H](CCCNC(=N)N)C(=O)O)[C@@H](C)O) [RP-063, ID NO: 9]
Inflam muscle [2]: 0.180 % per gm | Uninfl muscle [2]: 0.050 % per gm | Infl:Uninfl [2]: 3.62 | In vivo Distribution blood [1]: 6.370 % per organ | In vivo Distribution GI tract [1]: 5.080 % per organ | In vivo Distribution liver [1]: 3.050 % per organ | In vivo Distribution kidney [1]: 4.170 % per organ | In vivo Distribution urine [1]: 44.710 % per organ
